assay: soluble on expression in E. coli; label from the status in PepcDB or PDB records

| Sequence | soluble on expression in E. coli |
| --- | --- |
| MQKQNIVILGSTGSIGKSTLSVIENNPQKYHAFALVGGKNVEAMFEQCIKFRPHFAALDDVNAAKILREKLIAHHIPTEVLAGRRAICELAAHPDADQIMASIVGAAGLLPTLSAVKAGKRVLLANKESLVTCGQLFIDAVKNYGSKLLPVDSEHNAIFQSLPPEAQEKIGFCPLSELGVSKIILTGSGGPFRYTPLEQFTNITPEQAVAHPNWSMGKKISVDSATMMNKGLEYIEARWLFNASAEEMEVIIHPQSIIHSMVRYVDGSVITQMGNPDMRTPIAETMAYPHRTFAGVEPLDFFKIKELTFIEPDFNRYPNLKLAIDAFAAGQYATTAMNAANEIAVQAFLDRQIGFMDIAKINSKTIERISPYTIQNIDDVLEIDAQAREIAKTLLRE | not soluble |
| MSDDEIGDGARAFNQLIQALSLSIETETAVRTFTEMLVSELDVHQLTEQALALLLQHTGADGGAILIEVDGEIRVAASQGIGSAHTLANNDRVRSALRTERRHRVQLPEDLVVDGMLAQFRPKEVIIDPVRHKEVVLGAVVLASGQGFSAEDRNRLDVFERGLALALHNALLYDRLQTLAALDPLTGALEHHHHHH | soluble |
| MSMLKKTKEFFGLAPYEAEHEDAYYADEPRYEGTAAYAPEYRERDYGYAPEAPAPVAPSPAPRSYQSTIVPVELHSFEDAQVIGGAFRDGDAVVFDMSLLSREEARRIVDFAAGLCFALRGKMQKIDSVTFAVVPELSNISTSELERAARIRAAALEHHHHHH | soluble |
| MGSDKIHHHHHHVILSDWLAARLDRSAAEPVYRQTLRLMQQAILTGQLPPGTKLPSSRTLAQDLGIARNTVLHVYDQLTAEGYVISTTGSGTYVADTRPDTAAVNARKKPVVVSGIETDADAAIETTRRPKRDLGDLSTRGRRLIDTAGVSAKQWGAFMPGVPDVAEFPARTWSRLQARLWKEANPDLLTYAPGGGYRPLRRALSDYLRVARSVNCTPDQIIITTGIHQSIDLAVRLLTDVGDRAWVEEPCYWGARSVLQSSGITLVPVPVDDEGLNPREQDLQQPPRLALVTPSHQYPLGMVMSLARRRTLLEYARQHNVWIIEDDYDSEFRYGSRPLASLQGLDDAGQVIYVGSLGKMLFPGLRIGYMIAPEHLVDTFRTGVAELYREGQLMQQAVMTDFIMDGHLTSHVRRMRALYGERRQILIDAITARFGSELPVMGDEAGLHLVLGLPDHANDRAVTAAAYDAGVIVRPLASYYSGDTPARRGLLLGYACVPNDRIGPAFDTLARVIEQTALKTPTRAA | not soluble |
| AAMKVYDVTAPIYEGMPVYKNKPEKQPKRTTITNGYVTESRIDMDVHTGTHIDAPLHMVEGGATFETIPLNDLVGPCKLFDLTHVNDRITKDDIAHLDIQEGDFVLFKTKNSFEDAFHFEFIFVAEDAARYLADKQIRGVGIDALGIERAQEGHPTHKTLFSAGVIIIEGLRLKDVPEGRYFMVAAPLKLVGTDAAPARVLLFDREP | soluble |
| MGSDKIHHHHHHMSGQLHKMWYFPHMNQHEATVTDGDELQQFIAEAIALVGGVRALASIAGVSERTVYAWKNGERFPSRTNLNRLSEHLEHLSRQGYSPSAPQPHWRALRERMPGSYAPQQPDDTDRLTEEFVFVDKAEARPSAGGGSLETSARAETRYAFRLDWVLQKTPTSEGLRMMEVAGRSMENTLHNGDLVLVNERDVHLVEDRVYVVRVHDEIYVKRFARTPGCYHFRGDNRELAYQDISIDPRDENLDWEVIGRVLWAGKEL | not soluble |
| STRHPENYQWENWSLENVATILAHRFPNSYIWVIKCSRMHLHKFSCYDNFVKSNMFGAPEHNTDFGAFKHLYMLLVNAFNLSQNSLSKKSLNVWNKDSIASNCRSSPSHTTNGCQGEKVRTCEKSDESAMSFYPPSLNDASFTLIGFSKGCVVLNQLLFELKEAKKDKNIDAFIKSIRTMYWLDGGHSGGSNTWVTYPEVLKEFAQTGIIVHTHVTPYQVRDPMRSWIGKEHKKFVQILGDLGMQVTSQIHFTKEAPSIENHFRVHEVF | soluble |

From the DeepSol protein solubility set
